Patent publication US6825005B2, “Methods and reagents to regulate apoptosis” (President and Fellows of Harvard College, priority 2000, dated 2004)

Legend:
caspase 3 = assay: Pro-caspase 3 cleavage and activation, immunoblot and fluorogenic activity assay, U2OS cells treated with TNF; type: cell-based, human; conditions: inducible U2OS lines, TNF treatment
Experimental: Caspase Activation and Cytochrome c Release Assays. U2OS Cells were Induced for 24 hours with 1 μM muristerone and treated for the indicated time with 10 ng/ml TNF plus 30 μg/ml cycloheximide. Cells were trypsinized, washed in PBS, and resuspended in lysis buffer (1% NP40/50 mM Tris HCl/150 mM NaCl, pH 8.0/1 μg/ml each aprotinin and leupeptin/0.01% PMSF), and protein concentration was analyzed by using the Bradford method (Bio-Rad). Sixty micrograms of total cell lysate was then analyzed by Western blot analysis using mAb specific for pro-caspase 3 and pro-caspase 8.
Caspase activity was measured by using fluorescent caspase 8 and caspase 3 activity assays (CLONTECH). Inducible U20S cells were induced with muristerone for 24 hours and treated with 10 ng/ml TNF plus 30 μg/ml cycloheximide for 4.5 hours. Cells were trypsinized, combined with apoptotic cells in the tissue-culture media, counted, and assayed for caspase activity by the manufacturer's protocol on a fluorescent plate reader (excitiation 380 mn, emission 530 nm). For caspase 8 activity, 1×10^6 cells of each line were used, and for caspase 3 activity, 3.5×10^5 cells of each line were used.

[1] = system: cytochrome c release from mitochondria; assay: Cytochrome c release assay, immunoblot of cytoplasmic extracts of U2OS cells treated with TNF; type: cell-based, human; conditions: inducible U2OS lines, TNF treatment
Experimental: For cytochrome c release assays, U2OS cells were induced with muristerone for 24 hours and treated with 10 ng/ml TNF plus 30 μg/ml cycloheximide for 4.5 hours. Cells were then trypsinized, resuspended in sucrose buffer, homogenized in a Teflon tissue homogenizer, and centrifuged at 10,000×g for 10 minutes as described above. Postmitochondrial supernatant (100 μg of protein) was then analyzed by Western blot analysis for the presence of cytoplasmic cytochrome c. Cytochrome c levels were quantitated by using NIH IMAGE software.

U2OS cells = assay: Apoptosis assay, Hoechst-stained apoptotic nuclei counted in inducible U2OS cells; type: cell-based, human; conditions: cell line expressing the protein, treated with MMC or TNF-alpha
Experimental: Cell Lines and Reagents. U20S Cells were Cultured in DMEM Containing 10% Fetal Calf serum supplemented with 50 units/ml penicillin and 50 μg/ml streptomycin. Inducible hTid-1L, hTid-1S, H121QL, and H121QS were expressed in U20S cells from a plasmid containing a muristerone-inducible promoter (Invitrogen). Inducible cells lines were cultured under constant selection with 50 μg/ml Zeocin (Invitrogen) and 300 μg/ml G418. Gene expression was induced with 1 μM muristerone (Invitrogen) for 24 hours. SAOS-2 cells were cultured in DMEM containing 15% fetal calf serum and 50 units/ml penicillin and 50 μg/ml streptomycin.
Apoptosis Assays. Inducible U2OS Cells were Induced with 1 μM Muristerone for 24 hours, or went uninduced and were treated with either the indicated concentration of mitomycin c (Sigma) for 24 hours or the indicated concentration of TNF plus 30 μg/ml cycloheximide. Cells were fixed by exposure to methanol vapor for 10 minutes followed by immersion in methanol for at least 10 minutes. Cells were stained with 1 μg/ml Hoechst 33258 and 0.1% lowfat milk (Carnation) for 7 minutes and rinsed in water. Apoptotic nuclei were counted by using fluorescence microscopy. For transient-transfection experiments, U2OS cells were transfected by the calcium phosphate technique by using BES-buffered saline. […] Cells expressing green fluorescent protein were counted and scored for apoptotic nuclei.

mtHsp70 = target: T1, mtHsp70 (Homo sapiens, UniProt P38646); assay: Coimmunoprecipitation-immunoblot with mtHsp70; type: binding; conditions: endogenous proteins, U2OS cells
T1 construct: immunoprecipitate endogenous hTid-1L and hTid-1S in complex with mtHsp70 from human U2OS cells; endogenous in cells
T1 sequence (P38646 47-679): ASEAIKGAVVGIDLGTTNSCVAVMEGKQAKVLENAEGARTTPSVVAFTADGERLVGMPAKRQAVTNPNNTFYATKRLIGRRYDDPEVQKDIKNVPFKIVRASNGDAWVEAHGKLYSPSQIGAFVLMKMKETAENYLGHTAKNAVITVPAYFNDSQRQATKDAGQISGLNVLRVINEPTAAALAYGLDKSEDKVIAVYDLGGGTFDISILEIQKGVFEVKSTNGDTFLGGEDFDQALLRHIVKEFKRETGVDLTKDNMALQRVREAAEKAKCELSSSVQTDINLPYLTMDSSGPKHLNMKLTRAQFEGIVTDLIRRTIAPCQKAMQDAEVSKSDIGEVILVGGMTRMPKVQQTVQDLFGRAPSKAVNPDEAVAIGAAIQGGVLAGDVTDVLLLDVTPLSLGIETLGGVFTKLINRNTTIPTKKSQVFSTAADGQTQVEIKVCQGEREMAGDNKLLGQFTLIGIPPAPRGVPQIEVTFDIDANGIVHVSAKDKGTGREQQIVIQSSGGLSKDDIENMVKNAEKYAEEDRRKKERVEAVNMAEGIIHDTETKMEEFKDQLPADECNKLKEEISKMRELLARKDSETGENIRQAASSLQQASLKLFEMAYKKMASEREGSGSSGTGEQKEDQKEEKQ
Experimental: Immunoprecipitation. One 10-cm Plate of SAOS-2 Cells was Trypsinized, Washed in PBS, and lysed in 1% NP40/150 mM NaCl/50 mM Tris HCl, pH 8.0/1 μg/ml each aprotinin and leupeptin/0.01% PMSF on ice. The sample was split into four fractions and incubated for 1 hour with either anti-hTid-1, anti-mtHsp70, or anti-Hsc70 mAbs. Immune complexes were collected on protein G agarose beads (GIBCO) and washed three times in 0.1% NP40 lysis buffer. Samples were then separated by SDS/PAGE, transferred to poly(vinylidene difluoride) membrane, and probed with either anti-mtHsp70, anti-Hsc70, or anti-hTid-1 mAbs. Proteins were visualized by ECL (Amersham Pharmacia) by using x-ray film.

| Molecule | Cleavage and activation of pro-caspase 3 relative to control cells (caspase 3) | Cytochrome c released from mitochondria relative to control cells [1] | Levels of apoptosis relative to control cells (U2OS cells) | Interaction with mtHsp70 (coimmunoprecipitation) (mtHsp70) |
| --- | --- | --- | --- | --- |
| hTid-1L: 43 kDa mitochondrial matrix splice variant encoded by human TID1, SEQ ID NO: 8; proapoptotic (protein, listed as Homo sapiens) MAARCSTRWLLVVVGTPRLPAISGRGARPPREGVVGAWLSRKLSVPAFASSLTSCGPRALLTLRPGVSLTGTKHNPFICTASFHTSAPLAKEDYYQILGVPRNASQKEIKKAYYQLAKKYHPDTNKDDPKAKEKFSQLAEAYEVLSDEVKRKQYDAYGSAGFDPGASGSQHSYWKGGPTVDPEELFRKIFGEFSSSSFGDFQTVFDQPQEYFMELTFNQAAKGVNKEFTVNIMDTCERCNGKGNEPGTKVQHCHYCGGSGMETINTGPFVMRSTCRRCGGRGSIIISPCVVCRGAGQAKQKKRVMIPVPAGVEDGQTVRMPVGKREIFITFRVQKSPVFRRDGADIHSDLFISIAQALLGGTARAQGLYETINVTIPPGTQTDQKIRMGGKGIPRINSYGYGDHYIHIKIRVPKRLTSRQQSLILSYAEDETDVEGTVNGVTLTSSGGSTMDSSAGSKARREAGEDEEGFLSKLKKMFTS | more efficiently | more cytochrome c is released | markedly increased levels of apoptosis | interact specifically |
| hTid-1S: 40 kDa mitochondrial matrix splice variant encoded by human TID1, SEQ ID NO: 9; antiapoptotic (protein, listed as Homo sapiens) MAARCSTRWLLVVVGTPRLPAISGRGARPPREGVVGAWLSRKLSVPAFASSLTSCGPRALLTLRPGVSLTGTKHNPFICTASFHTSAPLAKEDYYQILGVPRNASQKEIKKAYYQLAKKYHPDTNKDDPKAKEKFSQLAEAYEVLSDEVKRKQYDAYGSAGFDPGASGSQHSYWKGGPTVDPEELFRKIFGEFSSSSFGDFQTVFDQPQEYFMELTFNQAAKGVNKEFTVNIMDTCERCNGKGNEPGTKVQHCHYCGGSGMETINTGPFVMRSTCRRCGGRGSIIISPCVVCRGAGQAKQKKRVMIPVPAGVEDGQTVRMPVGKREIFITFRVQKSPVFRRDGADIHSDLFISIAQALLGGTARAQGLYETINVTIPPGTQTDQKIRMGGKGIPRINSYGYGDHYIHIKIRVPKRLTSRQQSLILSYAEDETDVEGTVNGVTLTSSGKRSTGN | decreased cleavage and activation | release less cytochrome c | decreased levels of apoptosis | interact specifically |
